Consider one substance from US20250313624A1.

Experiment [1] deals with control discoidal lipid bilayer-membrane scaffold protein complex without GPCR1 (empty complex). The experiment is described as follows: Octet assay; biotinylated empty complex captured on streptavidin through the Bir-A tag of the membrane scaffold protein (FIG. 1B).
Experiment [2] has as its target discoidal lipid bilayer-membrane scaffold protein complex including GPCR1 transmembrane protein (human). The experiment is described as follows: Octet assay; biotinylated complex with GPCR1 captured on streptavidin through the Bir-A tag of the membrane scaffold protein (FIG. 1B).

For “streptavidin tethered to plates (from UniProt P22629 37-163)”, the Octet response is 0.69 nm in experiment [1] and 3 nm in experiment [2].
